# According to the supplement of paper PMC12042874:
# ± gives the uncertainty stated by the source.
# Test: amyloid nucleation score (Sup35N fusion, yeast selection) (log enrichment); library NNK1; higher = more nucleation; inactive = no reads after selection
# How it was run: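 Peptides of 20 random codons fused to Sup35N were expressed in psi-negative yeast, induced 24 hours with 100 μM copper sulfate, then grown 7 days at 30°C on medium lacking adenine and uracil. Input and output plasmid inserts were Illumina-sequenced. Nucleation score is the DiMSum log enrichment of output over input reads, centred on the mode score of non-aggregating sequences, excluding sequences with under 100 input reads. Random libraries had three technical output replicates.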
row,Substance,amyloid nucleation score
1,RHLLSSYRGFLLEQVSASNS,1.51 ± 0.38
2,RHVNEAESAGEGTGNYSRYS,-0.206 ± 0.41
3,RICLLRRGVCTHNVDMVVMY,-0.873 ± 0.68
4,RIDLGQTVFMVKYIAA,0.122 ± 0.17
5,RIEHISQRQCMTFSIVTVVN,-0.49 ± 1.1
6,RIFNKDSLGI,-0.554 ± 0.48
7,RIGLWCACMCRATTPVRGIE,-0.317 ± 0.46
8,RIIQGFLAM,-0.153 ± 1.4
9,RILRCNPLLCRNSACTGIGA,0.742 ± 0.75
10,RIRIFNKKSGMGQRWILVEG,-0.006 ± 0.73
11,RIRVDVEWSARRPG,2.19 ± 0.17
12,RISLVPRDASPESSTKSSSI,inactive
13,RIVQLFSRRNMRCFFIKE,3.07 ± 0.09
14,RIYKSWSFRTLRLPEC,2.25 ± 0.1
15,RIYRHIIVTGDNII,2.57 ± 0.56
16,RIYTTWGHYDNDHQIYLFRG,-0.601 ± 0.36
17,RIYTYSNCVGLKLAFTFAYR,0.642 ± 0.36
18,RKCWGSKEGVKKT,-0.62 ± 0.39
19,RKDRLTIGNRNL,0.73 ± 0.69
20,RKEISGLMVLLEANLVTWFV,-0.085 ± 0.3
21,RKHIRYTLVREIPLKSFSQY,0.043 ± 0.28
22,RKIEWTVSLRGGRKCYFSGE,-0.012 ± 0.3

row,Substance,amyloid nucleation score
1,RKRHSDNYRCEVNRS,-0.235 ± 0.52
2,RKSVKRVAKGGNS,3.82 ± 0.14
3,RLAFLIDRWVALRNEWRKGV,-0.791 ± 0.72
4,RLCASYSKYETFVADARRDG,0.413 ± 0.19
5,RLCFRASRETFLCNRFNY,inactive
6,RLCPTVRVQRLMFFPVCPGP,-0.035 ± 0.42
7,RLCRYLKYRYG,0.839 ± 1.1
8,RLDCIHNFALNSYFRIGAWG,-0.215 ± 0.45
9,RLDYFLCITYMIDQDRWRIT,-0.254 ± 1.1
10,RLFRTLGSDRGLFKEYF,0.734 ± 0.84
11,RLHPCRVATRPQHYT,inactive
12,RLLDFMFVGVLLACFGVQRW,1.39 ± 0.29
13,RLLFLMSWSSVVWINCRVWS,0.657 ± 0.6
14,RLLSLLINMTVVVWLSRKT,2.43 ± 0.25
15,RLMTASTALGPYTRDLGAYY,-0.089 ± 1.2
16,RLMVRGLDGKTFHSFFDSIL,inactive
17,RLNHEFFGYKRKTKLAGGLR,-0.107 ± 1.2
18,RLPLHHTCYVIC,0.468 ± 1.2
19,RLPRQYVMG,-0.279 ± 0.66
20,RLRFLNYTDAG,-1.2 ± 1.5
21,RLRNLYLQSFDRLCAVCKGY,0.197 ± 0.35
22,RLRWI,-0.057 ± 0.23

row,Substance,amyloid nucleation score
1,RLSLAESAPLVNFVSTALGK,-0.168 ± 0.93
2,RLSNYFNLECEQIRSYYRYM,1.85 ± 0.11
3,RLTECSYCCNSDYITHMELL,-0.317 ± 0.29
4,RLVLILSYYVRWNWGREDN,inactive
5,RLWNSRWFPGNLNCWVKLEW,0.044 ± 1.1
6,RLYFYGFRDSLWQFNLSEEH,7.619 ± 0.052
7,RLYKN,0.161 ± 0.9
8,RMAKYNFVIISVTDDVRQKC,2.42 ± 0.14
9,RMCLDGPITWFDRHK,2.16 ± 0.15
10,RMDSRKGTNNKSFSGGLEYR,-0.366 ± 0.32
11,RMDWWLEERASSSCDEELLT,inactive
12,RMLIDGLSLVVDWRYVVEGG,-0.192 ± 0.31
13,RMMFCVVAESGFQVWEVRSG,-0.502 ± 0.42
14,RMMLVV,-0.181 ± 0.37
15,RMMSGRWFMMWWLLVANRGV,inactive
16,RMQRNRGYPKVLLDMN,-0.472 ± 0.46
17,RMWRYASCHYI,1.73 ± 0.76
18,RNCEEGFWRSEQPDHTYKLA,-0.955 ± 0.62
19,RNCNNVYFELSVLASFLRVR,8.107 ± 0.05
20,RNCWGANLFDMWIRKSFR,0.067 ± 0.77
21,RNINLANHGCSSISLVYLPS,2.8 ± 0.21
22,RNLVWDMNAFKHVFCEDIHY,0.396 ± 0.69

row,Substance,amyloid nucleation score
1,RNLWGCMIWGMRG,1.83 ± 0.36
2,RNQDLLHFLVVGIAVKKYNY,-0.598 ± 0.35
3,RNSLNTLSPTARCSVSTFVR,0.562 ± 1.2
4,RPCFGFLGYNNAV,0.109 ± 1.4
5,RPGVGAVRSHSAGRMGGYGD,-0.057 ± 1.7
6,RPGWSHRITENLPFVEKVGP,-0.502 ± 0.7
7,RPTLDVIRNCRVDFAEKGGN,0.711 ± 0.35
8,RQMRPLGRGPS,-0.169 ± 0.84
9,RQPVRAMHLDISVRWSYWSV,2.79 ± 0.12
10,RQVPPISGAISWGDSPSNGG,0.18 ± 1.2
11,RRGGDSMDYNCFSARSRAFM,-0.146 ± 0.71
12,RRGRLYSKLCLCRF,0.874 ± 0.92
13,RRIRFNIRFTTCL,0.802 ± 0.74
14,RRKESYYGSSTYVSTNYAL,-0.075 ± 0.68
15,RRNVM,0.519 ± 0.25
16,RRRIEHAALVCV,0.055 ± 1.1
17,RRRYSC,-0.307 ± 0.42
18,RRSISWNIRSEDLR,0.85 ± 0.48
19,RRSQGAYLLNDGVRGIL,-0.057 ± 0.28
